Test results published in publication PMC3951439 (Science (New York, N.Y.), 2013).

Molecular target: PRC2 (Homo sapiens, UniProt Q15910)
Test: PRC2 histone methyltransferase assay on nucleosomes
Format: biochemical
Settings: peptide titration, µM concentrations; fluorography (Fig. 3E, fig. S3, D and E)

Chain of PRC2 (Q15910 whole entry): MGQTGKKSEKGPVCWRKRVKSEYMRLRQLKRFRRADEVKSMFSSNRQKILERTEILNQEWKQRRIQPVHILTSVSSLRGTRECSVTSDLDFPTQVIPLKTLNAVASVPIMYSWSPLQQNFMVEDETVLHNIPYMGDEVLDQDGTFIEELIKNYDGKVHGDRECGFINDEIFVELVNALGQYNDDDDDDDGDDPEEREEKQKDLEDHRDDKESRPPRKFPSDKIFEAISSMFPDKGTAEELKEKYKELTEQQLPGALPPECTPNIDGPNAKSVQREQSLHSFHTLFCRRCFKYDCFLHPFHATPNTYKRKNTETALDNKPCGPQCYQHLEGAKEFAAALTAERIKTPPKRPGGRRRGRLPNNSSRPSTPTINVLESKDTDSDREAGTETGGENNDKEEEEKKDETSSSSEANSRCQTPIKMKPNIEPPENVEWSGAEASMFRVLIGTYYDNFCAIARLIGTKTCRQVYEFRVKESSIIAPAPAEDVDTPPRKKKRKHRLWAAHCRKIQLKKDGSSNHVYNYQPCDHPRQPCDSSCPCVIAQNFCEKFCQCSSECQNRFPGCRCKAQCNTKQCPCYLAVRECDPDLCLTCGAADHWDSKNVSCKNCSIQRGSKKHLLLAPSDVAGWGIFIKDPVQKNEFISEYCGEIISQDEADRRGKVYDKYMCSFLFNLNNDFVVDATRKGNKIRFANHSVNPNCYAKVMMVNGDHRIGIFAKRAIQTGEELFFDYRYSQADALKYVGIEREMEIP
Chain of PRC2 (O75530 whole entry partner): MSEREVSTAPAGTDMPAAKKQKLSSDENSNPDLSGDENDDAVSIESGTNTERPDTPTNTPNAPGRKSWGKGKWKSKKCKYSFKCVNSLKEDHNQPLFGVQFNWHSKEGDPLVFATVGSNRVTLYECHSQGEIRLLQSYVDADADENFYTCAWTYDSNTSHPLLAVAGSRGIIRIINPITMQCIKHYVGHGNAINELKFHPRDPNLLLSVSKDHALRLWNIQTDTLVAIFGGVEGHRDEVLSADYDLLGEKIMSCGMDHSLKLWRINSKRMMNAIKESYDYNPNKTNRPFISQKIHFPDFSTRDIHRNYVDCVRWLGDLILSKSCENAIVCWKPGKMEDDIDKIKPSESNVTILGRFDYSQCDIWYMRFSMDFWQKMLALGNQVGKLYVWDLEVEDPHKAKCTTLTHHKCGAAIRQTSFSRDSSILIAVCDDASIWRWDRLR
Chain of PRC2 (Q6ZN18 whole entry partner): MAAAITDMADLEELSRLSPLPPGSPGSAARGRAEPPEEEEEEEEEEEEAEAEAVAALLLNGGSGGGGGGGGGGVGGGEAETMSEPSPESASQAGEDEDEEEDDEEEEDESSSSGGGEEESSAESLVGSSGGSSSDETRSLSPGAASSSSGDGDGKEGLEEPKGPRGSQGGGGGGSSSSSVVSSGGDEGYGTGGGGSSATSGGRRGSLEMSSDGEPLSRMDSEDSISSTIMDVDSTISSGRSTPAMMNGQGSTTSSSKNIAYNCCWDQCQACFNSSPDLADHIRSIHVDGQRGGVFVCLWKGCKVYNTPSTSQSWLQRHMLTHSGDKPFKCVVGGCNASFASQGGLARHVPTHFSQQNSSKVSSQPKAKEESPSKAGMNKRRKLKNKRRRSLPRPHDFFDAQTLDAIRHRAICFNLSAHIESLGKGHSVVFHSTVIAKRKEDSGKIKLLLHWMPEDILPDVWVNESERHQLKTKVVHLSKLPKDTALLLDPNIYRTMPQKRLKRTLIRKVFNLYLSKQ
Chain of PRC2 (Q15022 whole entry partner): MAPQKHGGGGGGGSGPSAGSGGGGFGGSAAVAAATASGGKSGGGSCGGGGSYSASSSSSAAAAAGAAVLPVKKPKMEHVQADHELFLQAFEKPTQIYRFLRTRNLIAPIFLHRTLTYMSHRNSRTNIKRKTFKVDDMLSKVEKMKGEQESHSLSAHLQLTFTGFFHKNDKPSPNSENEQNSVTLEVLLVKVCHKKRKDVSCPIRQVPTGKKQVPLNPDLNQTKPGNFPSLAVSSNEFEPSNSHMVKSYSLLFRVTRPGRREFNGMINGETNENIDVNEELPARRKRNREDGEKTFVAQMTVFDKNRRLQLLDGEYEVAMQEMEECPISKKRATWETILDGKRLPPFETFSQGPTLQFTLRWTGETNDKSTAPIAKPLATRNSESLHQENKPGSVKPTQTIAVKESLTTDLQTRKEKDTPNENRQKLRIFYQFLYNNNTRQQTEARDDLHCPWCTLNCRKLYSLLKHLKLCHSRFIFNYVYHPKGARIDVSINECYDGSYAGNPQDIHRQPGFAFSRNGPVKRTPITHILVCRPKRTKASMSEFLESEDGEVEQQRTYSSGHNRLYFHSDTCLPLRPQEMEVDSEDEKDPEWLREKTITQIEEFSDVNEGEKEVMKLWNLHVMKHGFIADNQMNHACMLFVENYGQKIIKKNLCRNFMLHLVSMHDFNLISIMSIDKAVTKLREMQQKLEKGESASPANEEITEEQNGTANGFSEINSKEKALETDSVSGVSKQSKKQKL
Chain of PRC2 (Q09028 whole entry partner): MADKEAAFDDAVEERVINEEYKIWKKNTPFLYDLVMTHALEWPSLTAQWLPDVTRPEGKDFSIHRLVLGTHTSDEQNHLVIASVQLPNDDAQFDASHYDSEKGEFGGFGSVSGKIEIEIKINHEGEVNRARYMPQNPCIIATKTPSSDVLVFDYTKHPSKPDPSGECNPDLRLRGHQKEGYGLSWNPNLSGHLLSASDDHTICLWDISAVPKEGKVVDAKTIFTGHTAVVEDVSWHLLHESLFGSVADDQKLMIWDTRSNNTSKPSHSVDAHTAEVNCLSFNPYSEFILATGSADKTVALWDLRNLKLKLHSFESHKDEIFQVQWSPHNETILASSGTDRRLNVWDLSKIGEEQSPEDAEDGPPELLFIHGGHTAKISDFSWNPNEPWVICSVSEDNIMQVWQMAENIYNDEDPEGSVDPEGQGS

## K27ac: H3 peptide (18 to 37) containing K27acetyl
  dose-dependent inhibition of PRC2 methyltransferase activity: not the K27ac peptide, could inhibit PRC2-dependent methyltransferase activity in a dose-dependent manner
